# Data taken from PMC13438699.
# Biological target: A/Solomon Islands/3/2006 (H1N1) HA (influenza A virus A/Solomon Islands/3/2006 (H1N1))
# Assay: cryo-EM structure
substance,measurement,value
A/Solomon Islands/3/2006 (H1N1) HA (natural protein),stoichiometry N,3
